Read-outs that look alike come from different tables or passages of the source.
Assays:
[1] = target: T1, cyno PAI-1 captured on immobilized human vitronectin (cynomolgus monkey; human, UniProt P04004 20-478, limits assumed); experiment: Biacore, cPAI-1 on vitronectin chip, 1:1 model
T1 construct: non-covalent complex formed on the chip; also called cPAI-1/Vn

[2] = target: human PAI-1 (human, UniProt P05121 24-402); experiment: cell-based or functional assay
[3] = target: T2, human PAI-1 captured on immobilized human vitronectin (human, UniProt P04004 20-478); experiment: Biacore, hPAI-1 on vitronectin chip, 1:1 model
T2 construct: non-covalent complex formed on the chip or plate; also called PAI-1/Vn complex; Vn captured hPAI-1

[4] = target: T3, glycosylated human PAI-1 (active form) (human, UniProt P05121 24-402, glycosylated); experiment: cell-based or functional assay
[5] = target: T3, glycosylated human PAI-1 (active form); experiment: cell-based or functional assay; remark: listed apart in the source

T2 sequence (chain, as listed by the source limits assumed, chain 1 of 2): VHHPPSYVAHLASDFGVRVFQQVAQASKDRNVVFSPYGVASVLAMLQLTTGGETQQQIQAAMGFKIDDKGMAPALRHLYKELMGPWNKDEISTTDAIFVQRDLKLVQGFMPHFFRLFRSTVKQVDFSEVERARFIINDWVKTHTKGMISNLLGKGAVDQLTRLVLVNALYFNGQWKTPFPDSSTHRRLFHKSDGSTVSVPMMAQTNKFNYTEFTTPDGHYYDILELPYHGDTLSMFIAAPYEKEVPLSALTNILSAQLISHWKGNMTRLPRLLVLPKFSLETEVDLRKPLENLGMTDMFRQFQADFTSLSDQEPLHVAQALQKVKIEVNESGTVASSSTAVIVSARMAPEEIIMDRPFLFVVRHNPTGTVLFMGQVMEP
T2 sequence (P04004 20-478 limits assumed, chain 2 of 2): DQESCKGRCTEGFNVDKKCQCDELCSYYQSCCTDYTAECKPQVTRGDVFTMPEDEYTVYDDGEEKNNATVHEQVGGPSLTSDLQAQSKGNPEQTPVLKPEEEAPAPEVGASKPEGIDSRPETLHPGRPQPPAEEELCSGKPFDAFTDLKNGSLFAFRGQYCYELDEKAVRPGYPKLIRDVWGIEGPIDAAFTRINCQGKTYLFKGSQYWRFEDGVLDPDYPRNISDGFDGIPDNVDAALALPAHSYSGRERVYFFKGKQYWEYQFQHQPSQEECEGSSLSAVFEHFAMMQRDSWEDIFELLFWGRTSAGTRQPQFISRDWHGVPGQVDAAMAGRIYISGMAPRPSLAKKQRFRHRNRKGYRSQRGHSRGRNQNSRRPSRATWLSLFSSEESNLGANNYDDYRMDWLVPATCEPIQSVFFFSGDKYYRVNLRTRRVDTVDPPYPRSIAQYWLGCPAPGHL
T1 sequence (chain, as listed by the source limits assumed, chain 1 of 2): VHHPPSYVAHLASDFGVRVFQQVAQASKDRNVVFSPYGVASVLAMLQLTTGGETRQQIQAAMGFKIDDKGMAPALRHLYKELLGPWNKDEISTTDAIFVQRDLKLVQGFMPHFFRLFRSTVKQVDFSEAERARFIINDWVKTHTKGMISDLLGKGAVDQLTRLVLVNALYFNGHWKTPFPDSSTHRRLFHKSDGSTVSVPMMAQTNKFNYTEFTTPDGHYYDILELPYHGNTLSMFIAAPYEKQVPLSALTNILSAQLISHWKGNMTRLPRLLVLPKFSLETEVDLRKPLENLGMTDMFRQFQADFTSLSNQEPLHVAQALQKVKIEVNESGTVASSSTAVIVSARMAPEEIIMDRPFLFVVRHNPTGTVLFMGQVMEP
T1 sequence (P04004 20-478 limits assumed, chain 2 of 2): as the sequence (P04004 20-478 limits assumed, chain 2 of 2) above

Row | Binder | Kd [1] [nM] | koff [1] [s⁻¹] | kon [1] [M⁻¹ s⁻¹] | Chromogenic Assay IC50 [2] [nM] | Kd [3] [nM] | koff [3] [s⁻¹] | kon [3] [M⁻¹ s⁻¹] | Plasminogen Activation IC50 [4] [nM] | Plasminogen Activation Y50% [4] [%] | Plasminogen Activation IC50 [5] [nM] | Plasminogen Activation Y50% [5] [%]
1 | A44-hv5 (antibody, V domains shown, humanized A44, HEK293; constant regions as for A44-hv1; also called LC2 x HC2b; variant 5) VH: EMTLKESGPTLVKPTQTLSLTCSVTGDSMTQGYWNWIRKFPGKALEYMGYITYSGSTYYNPSLKGRISITRNTSKNQYYLTLSSVTTVDTATYYCARWHYGSPYYFDYWGQGTTLTVSS VL: DIKMTQSPSSLSASVGDRVTITCKASQDINSYLSWLQQKPGKSPKTLIYRAQRSVEGVPSRFSGSGSGQDYSLTISSLQPEDLGIYYCLQYDEFPPTFGGGTKLEIK | 0.0326 | 0.000111 | 3.4e+06 | 1.11 | 0.0102 | 2.76e-05 | 2.72e+06 | – | – | – | –
2 | A44-hv9 (antibody, V domains shown, humanized A44, HEK293; constant regions as for A44-hv1; also called LC5b x HC5b; variant 9) VH: QMQLQESGPGLVKPSETLSLTCTVSGDSMTNGYWNWIRQPPGKGLEYMGYITYSGSTYYNPSLKSRITISRDTSKNQYSLKLSSVTAADTAVYYCARWHYGSPYYFDYWGQGTLVTVSS VL: DIQMTQSPSSLSASVGDRVTITCKASQDINSYLSWLQQKPGKAPKTLIYRANRSVDGVPSRFSGSGSGQDYTFTISSLQPEDIATYYCLQYDEFPPTFGGGTKVEIK | 0.0215 | 0.000134 | 6.51e+06 | 0.86 | 0.017 | 0.000103 | 6.36e+06 | 1.51 | 50.9 | 1.9 | 46.5
3 | A44-hv8 (antibody, V domains shown) VH: QVQLQESGPGLVKPSETLSLTCTVSGDSMTNGYWNWIRQPPGKGLEYMGYITYSGSTYYNPSLKSRITISRNTSKNQYSLKLSSVTAADTAVYYCARWHYGSPYYFDYWGQGTLVTVSS VL: DIQMTQSPSSLSASVGDRVTITCKASQDINSYLSWLQQKPGKAPKLLIYRANRSVDGVPSRFSGSGSGTDYTFTISSLQPEDIATYYCLQYDEFPPTFGGGTKVEIK | – | – | – | 0.76 | – | – | – | – | – | – | 11
4 | A44-hv6 (antibody, V domains shown, humanized A44, HEK293; constant regions as for A44-hv1; also called LC3 x HC3; variant 6) VH: QMTLKESGPTLVKPTQTLSLTCSVSGDSMTNGYWNWIRQFPGKALEYMGYITYSGSTYYNPSLKGRITITRDTSKNQYYLTLSSVTTVDTATYYCARWHYGSPYYFDYWGQGTTLTVSS VL: DIKMTQSPSSLSASVGDRVTITCKASQDINSYLSWLQQKPGKSPKTLIYRANRSVDGVPSRFSGSGSGQDYSLTISSLQPEDLATYYCLQYDEFPPTFGGGTKLEIK | 0.00501 | 2.51e-05 | 5.26e+06 | 0.82 | 0.0133 | 5.68e-05 | 4.38e+06 | – | – | 1.78 | 56.9

Reference: US20160200831A1 (Sanofi, published 2016)
